# Data taken from publication PMC9430589.
# Experiments:
# Test in all cases: EMSA
# Details in all cases: EMSA: 20 mM Tris-HCl pH 8.0, 1 mM MgCl2, 20 mM KCl, 10 mM Na phosphate pH 8.0, 10% glycerol, 500 nM heparin, 1 nM RNA, 37 C 1 h (PNPase: TMK, 50 mM Tris-HCl pH …)
# [1] = target: T1, RhlB (DEAD box RNA helicase) (Deinococcus radiodurans R1) (UniProt Q9RXH8)
# T1 sequence: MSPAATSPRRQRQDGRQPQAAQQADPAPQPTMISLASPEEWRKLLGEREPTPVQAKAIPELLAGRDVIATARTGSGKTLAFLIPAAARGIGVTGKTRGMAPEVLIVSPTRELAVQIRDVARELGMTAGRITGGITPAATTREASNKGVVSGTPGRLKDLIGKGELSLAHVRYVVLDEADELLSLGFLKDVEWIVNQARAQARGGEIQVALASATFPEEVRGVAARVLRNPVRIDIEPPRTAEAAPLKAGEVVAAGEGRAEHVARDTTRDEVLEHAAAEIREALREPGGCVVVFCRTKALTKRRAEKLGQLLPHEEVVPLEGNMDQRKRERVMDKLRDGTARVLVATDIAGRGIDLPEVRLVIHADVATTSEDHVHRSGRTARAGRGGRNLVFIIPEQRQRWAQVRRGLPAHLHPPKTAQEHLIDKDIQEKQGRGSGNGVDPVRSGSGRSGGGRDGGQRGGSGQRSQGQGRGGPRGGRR
# [2] = target: T2, Rho transcription termination factor (Deinococcus radiodurans R1) (UniProt P52153)
# T2 sequence: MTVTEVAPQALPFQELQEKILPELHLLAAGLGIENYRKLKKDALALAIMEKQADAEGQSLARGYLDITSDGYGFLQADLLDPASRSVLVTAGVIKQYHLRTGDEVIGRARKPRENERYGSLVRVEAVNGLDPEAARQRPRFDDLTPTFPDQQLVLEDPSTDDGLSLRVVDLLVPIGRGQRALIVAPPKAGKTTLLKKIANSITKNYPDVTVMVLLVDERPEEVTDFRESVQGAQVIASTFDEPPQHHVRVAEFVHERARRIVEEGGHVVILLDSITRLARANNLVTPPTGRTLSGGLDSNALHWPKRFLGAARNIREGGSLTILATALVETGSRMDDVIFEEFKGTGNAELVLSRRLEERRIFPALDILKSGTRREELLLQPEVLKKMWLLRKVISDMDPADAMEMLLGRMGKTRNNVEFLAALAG
# [3] = target: T3, RpsA (ribosomal protein S1) (Deinococcus radiodurans R1) (UniProt Q9RSY6)
# T3 sequence: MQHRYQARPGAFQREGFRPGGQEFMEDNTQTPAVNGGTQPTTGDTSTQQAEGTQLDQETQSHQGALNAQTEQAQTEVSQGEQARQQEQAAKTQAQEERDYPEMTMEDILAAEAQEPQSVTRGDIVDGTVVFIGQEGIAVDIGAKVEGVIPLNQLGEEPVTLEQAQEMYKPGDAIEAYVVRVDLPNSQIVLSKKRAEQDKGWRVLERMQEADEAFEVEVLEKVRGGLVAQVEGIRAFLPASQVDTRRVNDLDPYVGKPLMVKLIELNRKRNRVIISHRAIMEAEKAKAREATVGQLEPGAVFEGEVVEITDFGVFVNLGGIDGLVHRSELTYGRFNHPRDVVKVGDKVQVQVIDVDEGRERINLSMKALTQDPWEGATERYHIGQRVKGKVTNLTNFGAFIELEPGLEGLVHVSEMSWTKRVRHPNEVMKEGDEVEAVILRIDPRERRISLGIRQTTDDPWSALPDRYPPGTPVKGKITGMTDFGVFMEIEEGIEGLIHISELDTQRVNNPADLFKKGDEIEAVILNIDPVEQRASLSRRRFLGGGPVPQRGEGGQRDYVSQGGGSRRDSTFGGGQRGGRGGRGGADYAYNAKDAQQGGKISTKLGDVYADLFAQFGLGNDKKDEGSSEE
sequence,measurement,setting,value
"NNNGNNNNNGNNNNNGNNNNNGNN [8-oxoG x4 24-mer (random N, degenerate)]",Kd,"[1]; 8-oxoG at positions 4, 10, 16, 22",341 nM
"NNNGNNNNNGNNNNNGNNNNNGNN [8-oxoG x2 24-mer (random N, degenerate)]",Kd,"[1]; 8-oxoG at positions 16, 22",355 nM
"NNNGNNNNNGNNNNNGNNNNNGNN [8-oxoG x3 24-mer (random N, degenerate)]",Kd,"[1]; 8-oxoG at positions 10, 16, 22",351 nM
"NNNGNNNNNGNNNNNGNNNNNGNN [8-oxoG x1 24-mer (random N, degenerate)]",Kd,[2]; 8-oxoG at position 16,1880 nM
same,Kd,[1]; 8-oxoG at position 16,383 nM
same,Kd,[3]; 8-oxoG at position 16,1710 nM
"NNNGNNNNNGNNNNNGNNNNNGNN [Ctrl 24-mer (random N, degenerate)]",Kd,[2],3940 nM
same,Kd,[1],3010 nM
same,Kd,[3],5440 nM
